Assay results reported in US20130164309A1 (RESEARCH FOUNDATION OF STATE UNIVERSITY OF NEW YORK, published 2013).

B2: recombinant extracellular domain of human TCblR (aa 32-233), untagged secreted form (receptor)
chain: EAAASPLSTPTSAQAAGPSSGSCPPTKFQCRTSGLCVPLTWRCDRDLDCSDGSDEEECRIEPCTQKGQCPPPPGLPCPCTGVSDCSGGTDKKLRNCSRLACLAGELRCTLSDDCIPLTWRCDGHPDCPDSSDELGCGTNEILPEGDATTMGPPVTLESVTSLRNATTMGPPVTLESVPSVGNATSSSAGDQSGSPTAYGVIA
notes: Expressed in HEK 293 cells and secreted into the culture medium; also called TCblR ECD; extracellular TCblR
B5: TCblR 32-137, 166-233-mycHis (receptor, not shown: small tags and cut ends)
chain: EAAASPLSTPTSAQAAGPSSGSCPPTKFQCRTSGLCVPLTWRCDRDLDCSDGSDEEECRIEPCTQKGQCPPPPGLPCPCTGVSDCSGGTDKKLRNCSRLACLAGELGCGTNEILPEGDATTMGPPVTLESVTSLRNATTMGPPVTLESVPSVGNATSSSAGDQSGSPTAYGVIA
notes: Secreted, expressed in HEK293 cells, used as culture medium; also called second LDLR-A domain removed
B7: TCblR 32-52, 64-233-mycHis (receptor, not shown: small tags and cut ends)
chain: EAAASPLSTPTSAQAAGPSSGSGLCVPLTWRCDRDLDCSDGSDEEECRIEPCTQKGQCPPPPGLPCPCTGVSDCSGGTDKKLRNCSRLACLAGELRCTLSDDCIPLTWRCDGHPDCPDSSDELGCGTNEILPEGDATTMGPPVTLESVTSLRNATTMGPPVTLESVPSVGNATSSSAGDQSGSPTAYGVIA
notes: Secreted, expressed in HEK293 cells, used as culture medium; also called p53-63del; N-terminal 11 residues (aa 53-63) of the first LDLR-A domain deleted
B8: truncated TCblR 32-149 (receptor)
chain: not shown
notes: Secreted C-terminal deletion of the extracellular domain, expressed in HEK293 cells, used as culture medium; also called aa 150-233 deleted
B10: truncated TCblR 32-183 (receptor)
chain: not shown
notes: Secreted C-terminal deletion of the extracellular domain, expressed in HEK293 cells, used as culture medium; also called C-terminal 49 aa deleted (two N-glycosylation sites removed)

Legend:
[1] = target: B8; experiment: sandwich ELISA, mAb as capture
[2] = target: B10; experiment: sandwich ELISA, mAb as capture
[3] = target: T1, TCblR 32-94, 142-233-mycHis (human, UniProt Q9NPF0 32-233); experiment: sandwich ELISA, mAb as capture, TCblR construct in HEK293 medium; +++ OD 2-3, ++ OD 1-2, + OD 0.5-1, - OD <0.5
T1 construct: also called TCblR without the CUB domain; region between the two LDLR-A domains deleted

[4] = target: B2; experiment: as above
[5] = target: T2, TCblR 32-233-mycHis (human, UniProt Q9NPF0 32-233); experiment: as above
T2 construct: Secreted, expressed in HEK293 cells, used as culture medium; also called extracellular TCblR in pcDNA3.1 (-) mycHisA
T2 sequence: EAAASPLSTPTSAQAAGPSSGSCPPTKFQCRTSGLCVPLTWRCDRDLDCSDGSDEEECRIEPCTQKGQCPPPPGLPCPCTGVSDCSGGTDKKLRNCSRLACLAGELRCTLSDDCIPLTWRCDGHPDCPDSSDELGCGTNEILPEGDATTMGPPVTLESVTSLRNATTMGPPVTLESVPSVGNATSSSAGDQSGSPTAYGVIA

[6] = target: B7; experiment: as above
[7] = target: B5; experiment: as above
[8] = target: T3, TC-Cbl (recombinant human transcobalamin saturated with cobalamin) (human, UniProt P20062 19-427); experiment: radiolabelled TC-Cbl binding, WGA-agarose separation
T3 construct: also called holo-TC; holoTc
T3 sequence (looked up): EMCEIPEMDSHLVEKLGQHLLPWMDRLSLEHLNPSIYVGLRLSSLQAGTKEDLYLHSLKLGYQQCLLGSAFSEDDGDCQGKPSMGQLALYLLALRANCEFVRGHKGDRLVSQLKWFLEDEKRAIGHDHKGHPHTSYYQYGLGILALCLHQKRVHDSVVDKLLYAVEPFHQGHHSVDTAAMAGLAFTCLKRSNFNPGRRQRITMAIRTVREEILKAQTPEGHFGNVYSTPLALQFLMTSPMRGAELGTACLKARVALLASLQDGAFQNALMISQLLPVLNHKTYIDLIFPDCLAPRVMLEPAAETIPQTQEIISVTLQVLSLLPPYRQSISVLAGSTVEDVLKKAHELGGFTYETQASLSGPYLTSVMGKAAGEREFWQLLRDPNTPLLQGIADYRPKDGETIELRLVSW

[9] = target: T3, TC-Cbl (recombinant human …); experiment: radiolabelled TC-Cbl binding to mutated secreted receptor
[10] = target: T3, TC-Cbl (recombinant human …); experiment: radiolabelled TC-Cbl binding to deletion constructs
[11] = target: T3, TC-Cbl (recombinant human …); experiment: binding and internalization of TC-[57Co]Cbl by transfected HEK293 cells
[12] = target: T3, TC-Cbl (recombinant human …); experiment: radiolabelled TC-Cbl binding, indirect competition with full-length secreted TCblR
[13] = target: B5; experiment: sandwich ELISA, mAb as capture
[14] = target: B10; experiment: sandwich ELISA, mAb as capture, TCblR construct in HEK293 medium; +++ OD 2-3, ++ OD 1-2, + OD 0.5-1, - OD <0.5

B1: mAb 1-19 (antibody, V domains shown)
VH: DVQLQESGPGLVKPSQSLSLTCTVLGYSITSDYAWNWIRQFPGNKLEWMGYISFSGNIRYNPSLESRISITRDTSKSQFFLQLNSVTTEDRGTYYCARAGLGRVFYFDYWGQGTALTVSS
VL: DIVMSQSPSSLAVSVGEKVTMSCKSSQSLLYSSNQKNYLAWYQQKPGQSPQLLIFRASTRESGVPDRFTGSGSGTDFTLTISSVKPEDLAVYFCQQYYNYPFTFGSGTTLEIK
notes: also called TCblRKB 1-19; monoclonal antibody 1-19
- OD [1]: < 0.5 od
- OD [2]: < 0.5 od
- OD [3]: 1 to 2 od
- OD [4]: 1 to 2 od
- OD [5]: 2 to 3 od
- OD [6]: 2 to 3 od
- OD [7]: 1 to 2 od

Binder: B2
- binding result [8]: binds

B3: extracellular TCblR mycHis mutant pDE85, 86>LL (receptor, not shown: small tags and cut ends)
chain: EAAASPLSTPTSAQAAGPSSGSCPPTKFQCRTSGLCVPLTWRCDRDLDCSDGSLLEECRIEPCTQKGQCPPPPGLPCPCTGVSDCSGGTDKKLRNCSRLACLAGELRCTLSDDCIPLTWRCDGHPDCPDSSDELGCGTNEILPEGDATTMGPPVTLESVTSLRNATTMGPPVTLESVPSVGNATSSSAGDQSGSPTAYGVIA
notes: Made on the extracellular TCblR cDNA in pcDNA3.1 (-) mycHisA, expressed in HEK293 cells; also called D85L, E86L
- binding result [9]: no binding

B4: extracellular TCblR mycHis mutant pDE163, 164>LL (receptor, not shown: small tags and cut ends)
chain: EAAASPLSTPTSAQAAGPSSGSCPPTKFQCRTSGLCVPLTWRCDRDLDCSDGSDEEECRIEPCTQKGQCPPPPGLPCPCTGVSDCSGGTDKKLRNCSRLACLAGELRCTLSDDCIPLTWRCDGHPDCPDSSLLLGCGTNEILPEGDATTMGPPVTLESVTSLRNATTMGPPVTLESVPSVGNATSSSAGDQSGSPTAYGVIA
notes: Made on the extracellular TCblR cDNA in pcDNA3.1 (-) mycHisA, expressed in HEK293 cells; also called D163L, E164L
- binding result [9]: no binding

Binder: B5
- binding result [10]: no binding

B6: TCblR with the cytoplasmic tail deleted, on HEK293 cells (receptor)
chain: EAAASPLSTPTSAQAAGPSSGSCPPTKFQCRTSGLCVPLTWRCDRDLDCSDGSDEEECRIEPCTQKGQCPPPPGLPCPCTGVSDCSGGTDKKLRNCSRLACLAGELRCTLSDDCIPLTWRCDGHPDCPDSSDELGCGTNEILPEGDATTMGPPVTLESVTSLRNATTMGPPVTLESVPSVGNATSSSAGDQSGSPTAYGVIAAAAVLSASLVTATLLLL
notes: Limits derived; also called TCblR without the cytoplasmic domain; membrane-anchored receptor
- binding result [11]: binds

Binder: B7
- binding result [8]: no binding

Binder: B8
- binding result [12]: no binding

B9: mAb 1-25 (antibody, V domains shown)
VH: DVQLQESGPDLVKPSQSLSITCTVTGYSITSDYSWHWIRQFPGNKLEWMGYIHSSGITNYNPSLKSRISITRDTSKNQFFLHLSSMTNEDTATYYCTRPPVVTRYFDVWGAGTTVTVSS
VL: DIVMTQSPSSLTVTAGEKVTMSCKSSQGLLDSGNQKNYLTWYQQKPGQPPKLLIYWASTRKSGVPDRFTGSGSGTDFTLTISSVQAEDLAVYYCQNDYTYPLTFGAGTKLELK
notes: also called TCblRKB1-25
- OD [1]: < 0.5 od
- OD [13]: < 0.5 od
- OD [3]: 0.5 to 1 od
- OD [4]: 1 to 2 od
- OD [5]: 1 to 2 od
- OD [14]: 2 to 3 od
- OD [6]: 2 to 3 od

Binder: B10
- binding result [12]: binds

B11: mAb 1-23 (antibody, V domains shown)
VH: DVQLQESGPGLVKPSQSLSLTCTVTGYSITSDYAWNWIRQFPGNKLEWMGYIAYTNRTFYTPSLESRISITRDTSKNQFFLQLNSVTTEDTGTYYCARNSGKTYGFTYWGQGTLVTVSA
VL: DIVMSQSPSSLVVSIGEKVTMSCKSSQRLLYSANQKNYLAWYQQKPGQSPKLLIYWASTRESGVPDRFTGSGSGTDFTLTISSVRAEDLALYYCQQFYNYPLTFGSGTKLEIK
- OD [1]: < 0.5 od
- OD [2]: < 0.5 od
- OD [3]: 1 to 2 od
- OD [4]: 1 to 2 od
- OD [5]: 1 to 2 od
- OD [6]: 1 to 2 od
- OD [7]: 1 to 2 od
